Data taken from the supplement of paper PMC10065799, “High-throughput profiling of sequence recognition by tyrosine kinases and SH2 domains using bacterial peptide display” (eLife, 2023).

What was measured:
Hck = Hck (UniProt P08631); experiment: phosphorylation enrichment, bacterial display (enrichment ratio); higher = better substrate or ligand; peptides without Tyr show the background
AncSZ = experiment: as above
c-Abl (mouse) = experiment: as above
FGFR3 = FGFR3 (UniProt P22607); experiment: as above
Fer (mouse) = experiment: as above
Fyn = Fyn (UniProt P06241); experiment: as above
Chain of Fyn (P06241 whole entry, looked up): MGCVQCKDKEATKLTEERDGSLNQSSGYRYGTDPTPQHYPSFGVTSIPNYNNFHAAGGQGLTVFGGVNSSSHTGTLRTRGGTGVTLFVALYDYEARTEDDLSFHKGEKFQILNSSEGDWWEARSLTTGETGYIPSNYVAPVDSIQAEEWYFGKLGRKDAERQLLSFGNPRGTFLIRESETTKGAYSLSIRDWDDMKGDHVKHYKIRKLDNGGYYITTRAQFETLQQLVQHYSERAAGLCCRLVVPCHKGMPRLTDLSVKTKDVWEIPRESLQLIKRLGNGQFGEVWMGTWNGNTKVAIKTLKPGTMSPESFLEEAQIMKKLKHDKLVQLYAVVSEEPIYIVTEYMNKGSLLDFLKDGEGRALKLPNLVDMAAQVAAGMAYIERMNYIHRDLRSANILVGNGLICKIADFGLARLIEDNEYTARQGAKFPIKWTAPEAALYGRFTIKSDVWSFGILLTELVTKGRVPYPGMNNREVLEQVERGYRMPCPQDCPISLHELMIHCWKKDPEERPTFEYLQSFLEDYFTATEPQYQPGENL

Jak2 = Jak2 (UniProt O60674); experiment: as above
Chain of Jak2 (O60674 whole entry, looked up): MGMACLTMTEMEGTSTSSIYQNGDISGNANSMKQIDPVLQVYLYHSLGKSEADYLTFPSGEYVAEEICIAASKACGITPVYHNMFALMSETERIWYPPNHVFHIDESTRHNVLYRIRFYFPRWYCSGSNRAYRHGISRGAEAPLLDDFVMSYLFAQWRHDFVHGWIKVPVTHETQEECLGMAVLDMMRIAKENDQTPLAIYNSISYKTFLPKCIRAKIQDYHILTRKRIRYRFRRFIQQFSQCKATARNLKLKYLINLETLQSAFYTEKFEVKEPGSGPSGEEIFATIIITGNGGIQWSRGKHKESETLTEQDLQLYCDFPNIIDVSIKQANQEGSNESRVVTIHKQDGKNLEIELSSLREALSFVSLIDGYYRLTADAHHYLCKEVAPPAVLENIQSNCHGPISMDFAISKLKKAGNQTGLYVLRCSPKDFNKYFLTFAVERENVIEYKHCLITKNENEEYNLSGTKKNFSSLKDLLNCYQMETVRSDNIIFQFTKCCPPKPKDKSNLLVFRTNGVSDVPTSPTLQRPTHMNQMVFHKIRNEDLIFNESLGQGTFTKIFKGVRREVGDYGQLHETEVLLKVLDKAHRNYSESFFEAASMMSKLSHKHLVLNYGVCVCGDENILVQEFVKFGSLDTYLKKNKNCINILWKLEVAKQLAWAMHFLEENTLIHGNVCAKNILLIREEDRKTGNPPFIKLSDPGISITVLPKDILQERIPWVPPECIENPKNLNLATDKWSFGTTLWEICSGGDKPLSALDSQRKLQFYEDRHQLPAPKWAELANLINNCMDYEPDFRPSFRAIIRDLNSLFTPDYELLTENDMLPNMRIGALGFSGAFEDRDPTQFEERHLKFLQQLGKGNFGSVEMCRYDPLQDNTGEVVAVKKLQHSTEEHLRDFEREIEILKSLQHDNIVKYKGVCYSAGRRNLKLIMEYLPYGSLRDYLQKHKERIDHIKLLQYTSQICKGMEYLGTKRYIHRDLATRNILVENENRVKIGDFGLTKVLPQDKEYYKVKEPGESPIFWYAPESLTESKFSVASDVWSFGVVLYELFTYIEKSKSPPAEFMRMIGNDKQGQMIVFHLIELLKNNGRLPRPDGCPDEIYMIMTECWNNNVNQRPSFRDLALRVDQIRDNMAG

MERTK = MERTK (UniProt Q12866); experiment: as above
Chain of MERTK (Q12866 whole entry, looked up): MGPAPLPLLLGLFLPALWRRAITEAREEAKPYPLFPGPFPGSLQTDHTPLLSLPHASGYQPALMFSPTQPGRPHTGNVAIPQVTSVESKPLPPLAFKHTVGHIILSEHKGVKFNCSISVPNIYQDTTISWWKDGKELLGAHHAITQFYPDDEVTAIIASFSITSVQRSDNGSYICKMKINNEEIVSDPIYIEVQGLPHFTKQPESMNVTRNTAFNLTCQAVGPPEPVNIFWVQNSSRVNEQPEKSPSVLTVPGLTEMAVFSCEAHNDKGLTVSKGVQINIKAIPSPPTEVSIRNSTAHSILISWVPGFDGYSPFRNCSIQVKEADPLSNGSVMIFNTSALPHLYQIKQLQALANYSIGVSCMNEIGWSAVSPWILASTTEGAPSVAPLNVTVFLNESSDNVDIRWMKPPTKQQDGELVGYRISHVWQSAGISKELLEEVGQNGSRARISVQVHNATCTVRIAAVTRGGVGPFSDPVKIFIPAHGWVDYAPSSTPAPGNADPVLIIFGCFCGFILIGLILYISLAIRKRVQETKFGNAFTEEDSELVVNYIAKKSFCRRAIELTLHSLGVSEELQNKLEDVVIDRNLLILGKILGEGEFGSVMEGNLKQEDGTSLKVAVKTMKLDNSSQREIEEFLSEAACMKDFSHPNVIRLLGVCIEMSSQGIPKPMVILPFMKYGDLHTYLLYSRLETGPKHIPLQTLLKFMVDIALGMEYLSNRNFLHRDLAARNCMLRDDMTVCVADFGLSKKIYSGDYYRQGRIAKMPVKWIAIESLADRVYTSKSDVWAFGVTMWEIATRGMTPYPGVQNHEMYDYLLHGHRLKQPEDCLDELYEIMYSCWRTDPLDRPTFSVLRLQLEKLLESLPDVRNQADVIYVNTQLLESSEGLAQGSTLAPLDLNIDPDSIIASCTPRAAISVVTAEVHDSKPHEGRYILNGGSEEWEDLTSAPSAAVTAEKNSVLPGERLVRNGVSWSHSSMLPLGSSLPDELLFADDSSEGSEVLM

FGFR1 = FGFR1 (UniProt P11362); experiment: as above
Chain of FGFR1 (P11362 whole entry, looked up): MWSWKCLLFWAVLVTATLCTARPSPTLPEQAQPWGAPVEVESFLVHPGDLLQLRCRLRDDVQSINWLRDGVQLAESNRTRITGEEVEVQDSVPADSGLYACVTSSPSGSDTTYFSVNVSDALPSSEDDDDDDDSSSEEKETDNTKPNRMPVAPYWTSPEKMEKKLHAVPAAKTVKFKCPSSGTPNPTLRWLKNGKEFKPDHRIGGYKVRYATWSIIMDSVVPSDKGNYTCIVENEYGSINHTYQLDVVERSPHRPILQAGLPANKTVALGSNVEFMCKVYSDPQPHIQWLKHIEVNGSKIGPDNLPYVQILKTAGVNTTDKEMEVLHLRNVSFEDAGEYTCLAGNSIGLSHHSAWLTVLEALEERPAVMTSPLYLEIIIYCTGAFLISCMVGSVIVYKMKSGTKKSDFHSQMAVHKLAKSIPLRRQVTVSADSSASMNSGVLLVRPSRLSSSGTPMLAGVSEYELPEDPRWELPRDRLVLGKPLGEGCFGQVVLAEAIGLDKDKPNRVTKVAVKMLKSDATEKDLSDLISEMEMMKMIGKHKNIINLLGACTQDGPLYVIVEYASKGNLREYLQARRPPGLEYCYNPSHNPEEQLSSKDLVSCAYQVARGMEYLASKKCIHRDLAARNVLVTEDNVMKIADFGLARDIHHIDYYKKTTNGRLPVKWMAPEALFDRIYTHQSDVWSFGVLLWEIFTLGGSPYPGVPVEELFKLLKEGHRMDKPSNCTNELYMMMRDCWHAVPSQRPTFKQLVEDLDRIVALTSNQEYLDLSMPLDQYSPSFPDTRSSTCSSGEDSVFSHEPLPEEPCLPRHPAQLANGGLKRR

EPHB1 = EPHB1 (UniProt P54762); experiment: as above
c-Src = experiment: as above
EPHB2 = EPHB2 (UniProt P29323); experiment: as above
Chain of EPHB2 (P29323 whole entry, looked up): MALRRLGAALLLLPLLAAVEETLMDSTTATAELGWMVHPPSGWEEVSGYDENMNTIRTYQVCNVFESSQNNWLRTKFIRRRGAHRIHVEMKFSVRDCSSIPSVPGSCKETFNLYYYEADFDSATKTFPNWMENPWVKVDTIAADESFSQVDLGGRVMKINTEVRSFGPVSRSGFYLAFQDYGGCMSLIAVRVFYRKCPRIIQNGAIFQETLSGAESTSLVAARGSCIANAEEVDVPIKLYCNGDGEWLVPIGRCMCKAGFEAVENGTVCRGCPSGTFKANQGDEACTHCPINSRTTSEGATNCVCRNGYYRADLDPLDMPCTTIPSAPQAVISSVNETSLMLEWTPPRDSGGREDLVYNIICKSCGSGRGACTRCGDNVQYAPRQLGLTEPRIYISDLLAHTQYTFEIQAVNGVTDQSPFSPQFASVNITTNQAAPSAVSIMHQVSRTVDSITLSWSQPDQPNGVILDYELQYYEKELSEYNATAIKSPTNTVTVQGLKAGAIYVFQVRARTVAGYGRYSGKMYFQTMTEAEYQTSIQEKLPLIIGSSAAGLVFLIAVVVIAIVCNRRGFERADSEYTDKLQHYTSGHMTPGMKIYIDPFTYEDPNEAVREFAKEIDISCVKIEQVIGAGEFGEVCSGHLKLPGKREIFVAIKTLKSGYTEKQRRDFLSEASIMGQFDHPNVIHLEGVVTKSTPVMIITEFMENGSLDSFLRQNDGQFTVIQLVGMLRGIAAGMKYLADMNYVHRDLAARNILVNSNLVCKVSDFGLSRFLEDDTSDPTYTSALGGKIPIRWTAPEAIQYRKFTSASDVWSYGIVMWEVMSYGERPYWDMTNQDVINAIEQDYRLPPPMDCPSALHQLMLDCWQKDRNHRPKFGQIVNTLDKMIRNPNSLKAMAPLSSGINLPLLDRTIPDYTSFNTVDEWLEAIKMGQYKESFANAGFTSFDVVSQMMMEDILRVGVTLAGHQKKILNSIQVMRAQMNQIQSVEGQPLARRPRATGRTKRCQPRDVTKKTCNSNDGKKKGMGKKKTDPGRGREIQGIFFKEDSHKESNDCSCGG

Fes = Fes (UniProt P07332); experiment: as above
SHP2-C SH2 = experiment: SH2 binding enrichment of the phosphorylated peptide, bacterial display (enrichment ratio); higher = better substrate or ligand; peptides without Tyr show the background
Grb2 SH2 = Grb2 SH2 (UniProt P62993); experiment: as above
Chain of Grb2 SH2 (P62993 whole entry, looked up): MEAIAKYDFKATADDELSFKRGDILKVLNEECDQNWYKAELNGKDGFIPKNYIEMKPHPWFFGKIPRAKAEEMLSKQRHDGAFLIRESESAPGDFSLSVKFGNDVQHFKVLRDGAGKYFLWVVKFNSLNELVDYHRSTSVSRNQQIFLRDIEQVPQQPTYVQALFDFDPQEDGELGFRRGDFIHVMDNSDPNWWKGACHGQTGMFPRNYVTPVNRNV

c-Src SH2 = experiment: as above
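Throughout, for SH2 binding enrichment of the phosphorylated peptide, bacterial display: peptide library displayed on the E. coli surface as eCPX fusions, selected cells deep-sequenced, score is each peptide's frequency after selection divided by its frequency in the input.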
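Throughout, for phosphorylation enrichment, bacterial display: 11-residue human phosphosite peptides and single-mutation variants displayed on the E. coli surface, counted by deep sequencing, each peptide's frequency after selection divided by its frequency in the unselected input library; frequency after pTyr selection over input frequency; kinase dosed for 20-30% of maximal phosphorylation in three min.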

For STSKTYVISQT [RBBP6_Y87_R91Q], the phosphorylation enrichment (Hck) was 0.372, the phosphorylation enrichment (AncSZ) was 0.591 and the phosphorylation enrichment (c-Abl (mouse)) was 0.615. It also gave a phosphorylation enrichment (FGFR3) of 0.429, a phosphorylation enrichment (Fer (mouse)) of 0.328 and a phosphorylation enrichment (Fyn) of 0.446. It also gave a phosphorylation enrichment (Jak2) of 0.559, a phosphorylation enrichment (MERTK) of 0.44 and a phosphorylation enrichment (FGFR1) of 0.431. For the same sequence, the phosphorylation enrichment (EPHB1) was 0.391, the phosphorylation enrichment (c-Src) was 0.466 and the phosphorylation enrichment (EPHB2) was 0.418. For the same sequence, the phosphorylation enrichment (Fes) was 0.694, the SH2 binding enrichment (SHP2-C SH2) was 0.578 and the SH2 binding enrichment (Grb2 SH2) was 0.827. For the same sequence, the SH2 binding enrichment (c-Src SH2) was 0.418.

YHRQLYHKCTH [F12_Y58] gave a phosphorylation enrichment (Hck) of 0.53, a phosphorylation enrichment (AncSZ) of 0.886 and a phosphorylation enrichment (c-Abl (mouse)) of 0.641. For the same sequence, the phosphorylation enrichment (FGFR3) was 0.606, the phosphorylation enrichment (Fer (mouse)) was 0.467 and the phosphorylation enrichment (Fyn) was 0.378. It also gave a phosphorylation enrichment (Jak2) of 0.653, a phosphorylation enrichment (MERTK) of 0.571 and a phosphorylation enrichment (FGFR1) of 0.453. It also gave a phosphorylation enrichment (EPHB1) of 0.41, a phosphorylation enrichment (c-Src) of 0.481 and a phosphorylation enrichment (EPHB2) of 0.537. It also gave a phosphorylation enrichment (Fes) of 0.795, an SH2 binding enrichment (SHP2-C SH2) of 1.22 and an SH2 binding enrichment (Grb2 SH2) of 1.34. The SH2 binding enrichment (c-Src SH2) was 1.44.

VKPRRYRPGTV [H3-5_Y41_H39R] was tested, and the phosphorylation enrichment (Hck) was 0.5, the phosphorylation enrichment (AncSZ) was 0.622 and the phosphorylation enrichment (c-Abl (mouse)) was 0.512. For the same sequence, the phosphorylation enrichment (FGFR3) was 0.466, the phosphorylation enrichment (Fer (mouse)) was 0.463 and the phosphorylation enrichment (Fyn) was 0.58. It also gave a phosphorylation enrichment (Jak2) of 0.588, a phosphorylation enrichment (MERTK) of 0.577 and a phosphorylation enrichment (FGFR1) of 0.53. The phosphorylation enrichment (EPHB1) was 0.56, the phosphorylation enrichment (c-Src) was 0.608 and the phosphorylation enrichment (EPHB2) was 0.51. For the same sequence, the phosphorylation enrichment (Fes) was 0.542, the SH2 binding enrichment (SHP2-C SH2) was 0.514 and the SH2 binding enrichment (Grb2 SH2) was 0.835. For the same sequence, the SH2 binding enrichment (c-Src SH2) was 0.576.

Sequence RCKSHYAAFSV [C1QTNF1_Y145] has a phosphorylation enrichment (Hck) of 1.42, a phosphorylation enrichment (AncSZ) of 1.41 and a phosphorylation enrichment (c-Abl (mouse)) of 4.74. The phosphorylation enrichment (FGFR3) was 0.983, the phosphorylation enrichment (Fer (mouse)) was 1.46 and the phosphorylation enrichment (Fyn) was 1.4. The phosphorylation enrichment (Jak2) was 0.737, the phosphorylation enrichment (MERTK) was 2.89 and the phosphorylation enrichment (FGFR1) was 1.1. It also gave a phosphorylation enrichment (EPHB1) of 1.43, a phosphorylation enrichment (c-Src) of 1.07 and a phosphorylation enrichment (EPHB2) of 0.903. It also gave a phosphorylation enrichment (Fes) of 1.35, an SH2 binding enrichment (SHP2-C SH2) of 1.73 and an SH2 binding enrichment (Grb2 SH2) of 1.45. For the same sequence, the SH2 binding enrichment (c-Src SH2) was 1.34.

ALRASYTPSPV [ESS2_Y418_A423V] showed a phosphorylation enrichment (Hck) of 0.458, a phosphorylation enrichment (AncSZ) of 0.847 and a phosphorylation enrichment (c-Abl (mouse)) of 0.945. It also gave a phosphorylation enrichment (FGFR3) of 0.502, a phosphorylation enrichment (Fer (mouse)) of 0.424 and a phosphorylation enrichment (Fyn) of 0.39. It also gave a phosphorylation enrichment (Jak2) of 0.909, a phosphorylation enrichment (MERTK) of 0.435 and a phosphorylation enrichment (FGFR1) of 0.32. For the same sequence, the phosphorylation enrichment (EPHB1) was 0.366, the phosphorylation enrichment (c-Src) was 0.678 and the phosphorylation enrichment (EPHB2) was 0.53. It also gave a phosphorylation enrichment (Fes) of 0.723, an SH2 binding enrichment (SHP2-C SH2) of 0.557 and an SH2 binding enrichment (Grb2 SH2) of 0.67. It also gave an SH2 binding enrichment (c-Src SH2) of 0.418.

FSMGCYEISLE [HMGCL_Y198_G203E_YF] showed a phosphorylation enrichment (Hck) of 0.758, a phosphorylation enrichment (AncSZ) of 2.14 and a phosphorylation enrichment (c-Abl (mouse)) of 1.2. It also gave a phosphorylation enrichment (FGFR3) of 0.973, a phosphorylation enrichment (Fer (mouse)) of 1.14 and a phosphorylation enrichment (Fyn) of 0.898. The phosphorylation enrichment (Jak2) was 1.31, the phosphorylation enrichment (MERTK) was 0.623 and the phosphorylation enrichment (FGFR1) was 0.541. The phosphorylation enrichment (EPHB1) was 0.913, the phosphorylation enrichment (c-Src) was 1.51 and the phosphorylation enrichment (EPHB2) was 0.751. It also gave a phosphorylation enrichment (Fes) of 1.53, an SH2 binding enrichment (SHP2-C SH2) of 0.7 and an SH2 binding enrichment (Grb2 SH2) of 0.879. It also gave an SH2 binding enrichment (c-Src SH2) of 0.347.

In the case of FRAVKYLQMVG [AVPR2_Y117_C112Y_YF], the phosphorylation enrichment (Hck) is reported as 0.319, the phosphorylation enrichment (AncSZ) is reported as 0.889 and the phosphorylation enrichment (c-Abl (mouse)) is reported as 0.629. For the same sequence, the phosphorylation enrichment (FGFR3) was 0.518, the phosphorylation enrichment (Fer (mouse)) was 0.366 and the phosphorylation enrichment (Fyn) was 0.397. The phosphorylation enrichment (Jak2) was 0.902, the phosphorylation enrichment (MERTK) was 0.366 and the phosphorylation enrichment (FGFR1) was 0.387. The phosphorylation enrichment (EPHB1) was 0.509, the phosphorylation enrichment (c-Src) was 0.496 and the phosphorylation enrichment (EPHB2) was 0.393. For the same sequence, the phosphorylation enrichment (Fes) was 1.26, the SH2 binding enrichment (SHP2-C SH2) was 3.15 and the SH2 binding enrichment (Grb2 SH2) was 0.96. It also gave an SH2 binding enrichment (c-Src SH2) of 0.552.

Work on RVGNMYMRGLS [ABCG8_Y209_V210M] yielded a phosphorylation enrichment (Hck) of 0.615, a phosphorylation enrichment (AncSZ) of 0.672 and a phosphorylation enrichment (c-Abl (mouse)) of 0.453. For the same sequence, the phosphorylation enrichment (FGFR3) was 0.596, the phosphorylation enrichment (Fer (mouse)) was 0.469 and the phosphorylation enrichment (Fyn) was 0.657. For the same sequence, the phosphorylation enrichment (Jak2) was 0.663, the phosphorylation enrichment (MERTK) was 0.697 and the phosphorylation enrichment (FGFR1) was 0.704. For the same sequence, the phosphorylation enrichment (EPHB1) was 0.615, the phosphorylation enrichment (c-Src) was 0.552 and the phosphorylation enrichment (EPHB2) was 0.559. The phosphorylation enrichment (Fes) was 0.966, the SH2 binding enrichment (SHP2-C SH2) was 1.7 and the SH2 binding enrichment (Grb2 SH2) was 1.42. For the same sequence, the SH2 binding enrichment (c-Src SH2) was 1.01.

STTIHYNFMCN [TP53_Y234_C229S_YF] was tested, and the phosphorylation enrichment (Hck) was 0.504, the phosphorylation enrichment (AncSZ) was 1 and the phosphorylation enrichment (c-Abl (mouse)) was 0.753. It also gave a phosphorylation enrichment (FGFR3) of 0.797, a phosphorylation enrichment (Fer (mouse)) of 0.494 and a phosphorylation enrichment (Fyn) of 0.493. The phosphorylation enrichment (Jak2) was 0.998, the phosphorylation enrichment (MERTK) was 0.5 and the phosphorylation enrichment (FGFR1) was 0.523. For the same sequence, the phosphorylation enrichment (EPHB1) was 0.628, the phosphorylation enrichment (c-Src) was 0.463 and the phosphorylation enrichment (EPHB2) was 0.605. It also gave a phosphorylation enrichment (Fes) of 1.19, an SH2 binding enrichment (SHP2-C SH2) of 0.902 and an SH2 binding enrichment (Grb2 SH2) of 0.788. The SH2 binding enrichment (c-Src SH2) was 0.64.
